Target: T1, Acetyl-Prolyl-Arginyl-Asparaginyl-Lysyl-aminoacetamide coumarin (Ac-PRNK-ACC)
T1 chain: PRNK

B1: bovine factor Xa protease (Promega) (protein)
chain: ANSFLEEVKQGNLERECLEEACSLEEAREVFEDAEQTDEFWSKYKDGDQCEGHPCLNQGHCKDGIGDYTCTCAEGFEGKNCEFSTREICSLDNGGCDQFCREERSEVRCSCAHGYVLGDDSKSCVSTERFPCGKFTQGRSRRWAIHTSEDALDASELEHYDPADLSPTESSLDLLGLNRTEPSAGEDGSQVVRIVGGRDCAEGECPWQALLVNEENEGFCGGTILNEFYVLTAAHCLHQAKRFTVRVGDRNTEQEEGNEMAHEVEMTVKHSRFVKETYDFDIAVLRLKTPIRFRRNVAPACLPEKDWAEATLMTQKTGIVSGFGRTHEKGRLSSTLKMLEVPYVDRSTCKLSSSFTITPNMFCAGYDTQPEDACQGDSGGPHVTRFKDTYFVTGIVSWGEGCARKGKFGVYTKVSNFLKWIDKIMKARAGAAGSRGHSEAPATWTVPPPLPL
  cleavage of the fluorogenic substrate (fluorescence, excitation 355 nm, emission 460 nm): Ac-PRNK-ACC (SEQ. ID. NO: 12) is a specific substrate for tryptase in relation to other blood borne serine proteases
